Drawing on the NTF2 design screens of Basanta et al. (2020), this text covers protease stability score for 47 sequences.

The data set can be described thus: protease stability score; higher = more stable; yeast display proteolysis, trypsin and chymotrypsin.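 Also: relative to predicted unfolded state with 0 unfolded-like and 1 meaning tenfold more protease.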
The sequence “DEHDRDARRFTDILLEAFMTGDEDLSHKMLDPNMRLHINGKIHHGRELATELLHEMRIERLVIEDYRIHYQGEKVHVTLHGRLHGRVDGKEHNSEVNIFINIEKVNGKWIVRSFTLKIH” had a protease stability score of 1.47. With “DEHEDDARRMWELLEHDLQTGDEESIHRLVDPNAKVVYGDKEFVGREVLLRFASEWRVHLMHLDDIKIRTYGDKIDIDTTTITNGEFNGRKHVTRTHLRVHFEKVNGKWYVREVIIEIH” the figure was 1.31; with “DEHEDHVLEVFRIILEILLTGDFREWRRLADPTVRLEFNGREYHGRDEILEFLTQHIRHWRLKHIHIDNYEVYDGRIEVHGHIRFTFNGKEHIIETRIIINVFDGRLHDEQYITH”, 1.53; with “DEHEDNLQHLIHVMTELFITGDWKELRHLIDPNALLHINGKDVHGWHLALEHIVRWREEMGVKHSHVERIHLQGDKTHLHMREHFNGRTVELEIRIIFVNGRLESHEMRIRNN”, 0.822. The sequence “DEHEEAFREFLRLLLESLRTGDEHTLKRLIDPHARIDIDGQEFVGMEHLEHILKNMIKHIRYEDIEIEHFEFINGQVRFKTRYHGRINGKRDTLHIHIIITKINGKWVLEQLEFR” showed a protease stability score of 2.15. Turning to “DEHEEALEEFLTEMIENIKTGDWHSELKLMDPHVRILFDGVIFHGREFFFQWLRHLLQRADHVNFTIDDKKYQGDKMVIETTFHLIINGQRIERYTVLLARKVNGRWYIEEVRLH”, the protease stability score is 2.33. In turn, “DEHEEASKLAIELLLTLERTGDEDKLRKLVDPNVRYDINGRELHGWEFMHRMIRHLRTEHVTIERVHVQGDWIHIDRILNVNVNGKEINIRTKINAQKINGVWIEREVEIQ” displayed a protease stability score of 1.09. As for “DEHEEDARRDLEKLARSLKTGDEDSLRTLFDPNTRNDVNGKDFIGWEELLRILREWRFHDMKVEDLEVQGNKVISHVRLDGTFDGRRDEMHVEIRAEKVNGRWRIRSYIVR”, the protease stability score is 1.77. Take “DEHEEDMERFLRELLDHWRTGDEDVIRELMDPHVKVDINGKIHHGREEAVHFLIEMRFRHFHVHDLRVQGEKADVDGRTHMEYNGRTVDQRITIHLVKIDGKWREKSITLE”: the protease stability score came to 1.24. As for “DEHEEDVSKFTKMWEEDIRTGDEDSLYKMIDPHALLDFNGKEIIGREEVMHILHEELRELRIHNVHTHDIKVQGNKVNLNIRFNIEINGRIYDLQYKYDWRKINGRWFAHSEVIR”, the protease stability score was 0.764. The sequence “DEHEEDWRHVLKTLEDVMRTGDPHLFSHLADPHVRLRIDGRDHIGMELMWEILHKYKNITIEIEHSRVQGDKIEIRGTLDVDGRRYHVTIFADKINGKWIHREMEVT” returned a protease stability score of 1.18. Take “DEHEEEAHKFVELKRRIWKTGDERLKSELADPNVKITFNGKELHGMEELIKVNREMGIKHVQIEDIDFQGNKVMVFGRSNIGDFNNRVEIIAEKYNGKWSLSEVRIH”: the protease stability score is 0.322.

In turn, “DEHEEEAIRMLRLIFFLLHTGDWEVMHELFDPHARFTINGRRIHGMEEWLKFLREIRIEDSDIHVKRIDIQGDKMRIKGVVHLEGNVNGRREHTELHIDVHLEKVNGRWIIRLIEFK” came in with a protease stability score of 2.35. With “DEHEEELKRILELIEHLIHTGDEDTMLHLADPNVRSHVNGRDRHGWNLYLRLLEELVWRLGIKHMEIHSTTAIDGRVIIHMRLHVGDKTIHVILLFQVVDGRVKSSSVEVHEE” the figure was 1.44. “DEHEEEVLRIARDFLEALRTGDEEHMTELMDPHVRLEVDGRDLHGREEVLRLLVEQWERIKNVTWEVERLEIVNGRLIIQLRVHVNGQNHDVRLYINVVDGVVKSIRHEKH” registered a protease stability score of 1.47. For the sequence “DEHEEEVREMHRVWVELLRTGDWRILAEMFDPNVRMHIGDKEHHGREAIEIHIEKFKNVRLEITRVHIQGEYIVIEGVINIDGKTHTLRFHFVLVNGRLKQYDEHSE”, the protease stability score is 2. With “DEHEEFAERNLKLLTELEETGNEDEIRKQADPHVRIEIGDKDIVGMHLWAKWVTHVKDRFDHIEVRLHRVHVQGDKILMHTQLILTQGNYRREFRTEVIIRKINGRWVLHSMHFH” the figure was 1.42; with “DEHEEFLHRWAEQFLKNMITGDFDRLHELLDPHVRWRIGDKDSIGWKTIIDVVKDLLREIRIEDVTLHRIEVQGDKSIIVITTIVEIDGRRYRTTVIIRMRIIDGRLKSVDVEER”, 1.31. As for “DEHEEHVHEITRLIIEAELTGDFERMKKMFDPNAKLILLINGREDTNHGMDFVRFWLKEHLERVDHRRVELKRWDVVNGVSHNDVTLHLEVGEWKITVKMHLHIVVVDGRLKSIKIEIR”, the protease stability score was 1.4. With “DEHEEHWREMFERWLFALITGDEETLHKLLDPNVKMDINGQHHVGREQVLHEFRKFHDVLGVKVSRNFHVKDKEVQGDKLHLTIEFRGEFNGKEEITQARIVIVKINGRWTIERVELE” the figure was 1.97. Turning to “DEHEEISRRLAEFENEWINTGDEESFARNADPDVRIHVGEFHSHGREEMIRILKEFFRWLGVKHFRPTHIEIQGEKVIIYLEWHFDGRTHRIQIISVVVDGRRKSFQVHKL”, the protease stability score was 0.185. With “DEHEEKIHFILHILQEAWRTGDESQLENLLDPNVRIIIGDKKTHGREAVINLFNHWRVENIRVHLRDVRVQGDKIHLETEIQVDGNVNGKTDRIEFETEFIIRKVDGRWLIEVIRMH” the figure was 2.17; with “DEHEEKLIKHMESLLHWEETGDEESMLKNADPNARHDVNGVEFHGMHRFVHHVIKRGWRFRMEVEHVDAFDGRYRVEGTLILNFDGVEHRHHVILRFIVIDGRLHERKVEVR”, 1.46. In turn, “DEHEELIMEFLRRLLEWHLTGDEEYISRNFDPNTQFDILIGDKRYHIHGREEIHEWLHEFLRELRVHIIVHEMRAQGDKAHNRGTLNLTYGDKRRTVDVHIFIVVVNGRYKKIIVQVK” had a protease stability score of 1.62. Turning to “DEHEELLEHIIRLWLKYIHTGDFRNWMKYADPNAKWRTENHEHHGREEIARDLHEFNKKLGMEFRIDLRHFEIQGDKVRMHTEYILHIGDYTERRETEVTVIIVDGKIKSIRLLVR”, the protease stability score was 1.67. With “DEHEELLRRIFELLLHALKTGDEDLLYKMADPNTRSIIGDKIHHGMEEHRKAVEKWLREMGVKHIEIKRVHIQGEKIHIDTHWKVGDKSETVKINIHVIDGRLTEIHIEIE” the figure was 1. With “DEHEELLRRLADEWFKSLLTGDEDRLLELADPNMRIRLLINGRDEKIHGWEELVRWFREIRFRSMDIDSFTLVNGKIQIRFKYRGRVNGQTHETRSEFLLIVIDGKVTHVEVRLE” the figure was 2.46; with “DEHEELMEEFMRKILHAWLTGDWDLINEMADPDVRTNINGRNEIGREEFEKLWQEIRFRRFDLKRWHVFNGVIHIDGHIDGEVNGRRTKRDVLIRLFIFNGRLKKEEVEYL”, 1.55. Take “DEHEELMRRLMQLWMENWLTGDEDVLYKLADPNAKWDINGVKLHGREKMNEDRKEILERHGATFYLEIRDFTVINGRAHVDGHEDYIINGKRIRTDVQIILVIVNGKFKSEEVKIR”: the protease stability score is 0.292. “DEHEELMRTLAEIVLRIFLTGDWDSFSKLADPNYRIDWNGRHTHGMHLAERVLREIHRQIRIDNVILQDMRIQGNKVHNHGTIDGNINGVHDKVQTHVHLILVDGRLKEVEFRHH” gave a protease stability score of -0.231.

Turning to “DEHEEMFTKLMRELIHIWLTGDEDILNHMADPNVLVEINGRREHGREALSRFLEKFKNVRIHLHSSTAIGEKSIIDTQININGKQIKVRVEIYMVDGKIKEIRLDIQ”, the protease stability score worked out at 1.29. Consider “DEHEEMVRIFIKLFIHNSHTGNEEELTRMADPHTKVDVNGKEYIGREEWRRFFMELGVDHVEVRRVHVQGEKAEVDLELNIDGRVIRFHIYTLKINGKWIIKSLEVR”, for which the protease stability score amounted to 1.78. “DEHEENVRKDIKEHEETEKTGDEKAYLEMADPHVKVDIDGVDLHGMERVTNFYRELLHKFPNIRIHTRHVDVQGEKVHVETELEWNGVKLETELVWVKINGRWLTHEIHIR”: the protease stability score turned out to be 1.2. With “DEHEEQIEEFWRITVDQWMTGNEELIETYLDPNARVDINGKQTHGREQVTRLMLREMKHMRIKSIKLRRVRIVDGRVDLDGTLHGEVNGREFVLESHVHAEKFDGRWLIRTIKVN” the figure was 2.23; with “DEHEEQVRRFLHHLWRSVQTGDEHELANNFDPNTRVDVGDKHLHGMERFVYLIFEFARHWRIRHTTLHFIVRIGEFIEVDHILDGEIDGRRREVKMTIIIFKVDGRWIIRSMEVK”, 1.82. “DEHEERLEHWAEVIIRSWITGDESLFRHLFDPHVRTEVNGVERHGRDEAVKMERLIREHLGVKHEEIKDYHVQGDKIHVDSRVDVNGVKINTRIHVLVVNGRIKEVRFEFD” yielded a protease stability score of 0.841. With “DEHEESAEWHSELMIRSMETGDEDLFEHLLDPRARFHINGQDIHGRDSISHFLSRRLKDMGFKHSSLKTVTIEVQGEWVYLRIKVILIVDGRHLDTEIIIISRKIDGVWHVHSMEIRFR” the figure was 1.34; with “DEHEESVIWLLDVMFDAWRTGDEERVRRYLDPNVRIEVDGVSIHGRERVVEHLRRIDHLSVERVEIHHSTVINGVARTDGHVLLEFNIGDKHFRIERKSDSIVEKIDGRWIVHELTYR”, 0.202; with “DEHEETIKRLAEIMEKWWFTGDEDALRLLLDPHVRIHLHQGDFNLDLIGMEHLRRLIHELIRKLGIDHSILKDRDIQGDKVTIHMELRIGDKTVTSHITMVMINGRLESFKIHFK”, 1.32. In the case of “DEHEETMHWALEVIEEFLQTGDERLMEENLDPNVRLEYGDKILVGRELFLELLRRLVEKYKNIRINIHDIKLYDGRLYLDVELRYGDFRSTTRIFSEKYNGRWVDRSYHVE”, the protease stability score came to 1.71. With “DEHEEYMEELVKSIYTLWKTGDEDTLLSLFDPNMRILIDGVDAVGRENFKEEFRRFKEEIRHKDHKIHHIDIQGEKIRTEVLVHGIWDGVDTTLHVEIRIVVINGRVKSIEFHFT” the figure was 1.74. Consider “DEHEHAFRIIAEMLVEAMKTGNEETFSRLFDPNVRITWNGRHNHGRENYVEFIRQIRVDDLHIVLEDVRVIDGVIEVHGKMRIHGIVNGRRDEFIWESRVVIVKIDGRWHIESIRFD”, for which the protease stability score was determined as 1.09. Regarding “DEHEHFMEYAMKRMLHSWLTGDEHDWHELADPNVKLHIGEYNFIGREEYYRHLHRHLHEAGFKHIKIDHIHVEIQGEKLIFRMDTTIHFNGRKLRVEVIVILFKVNGRWSLHTDEVHIE”, the protease stability score amounted to 0.931. Regarding “DEHEHLALRMTTRFTDMLRTGDWENMLRYFDPDARIIIDGRKHHGRERMHEIWREIRVTDLRINRERVRVQGDFVINHIDGEEDVEIGDKRISTRSIIILVVHKIDGRWHMKELEINIV”, the protease stability score was determined as 0.796. The sequence “DEHEHLMLKVVLISIRALLTGDEDRFEHLADPHTRVEVNGVERHGREEYRKWLEHIRIKHIEVEESRAQGDFVHLNGRLRVSYGDKRFETETRWDWIIVDGKLKEMRIRIN” gave a protease stability score of 1.26. With “DEHEHMTELAHRIIMKTWETGDEEEQHRMFDPHARLIIDGKNIHGREQIQREMKRFSEEIRLRDATIHRVEIQGNKVISDWRLRIDVDGREVHFESHVIIRKVNGRWRIDHLILN” the figure was 1.21. On to “DEHEHQADHMQEILIRSHETGDEDLIREFFDPHARLDIGDKHNIGRESIKRFIHELLRILGLDNITLRVRHKTIQGDKIITHLELEVNGKRLEVIIHNEKINGQWSVRKVEWR”, for which the protease stability score worked out at 1.98.
